Entries after “also recorded” stand apart in the source; their conditions may differ. Values belong to the molecule of their own block, whether it stands above or below them.
How the values were obtained:
[1] = molecular target: glucagon (UniProt P01275); test: SPR, Reichert 4SPR
[2] = molecular target: glucagon (UniProt P01275); test: microscale thermophoresis (MST), His-tagged GP73 labelled with RED-tris-NTA, GCG titrated
[3] = molecular target: glucagon (UniProt P01275); test: OpenSPR, GP73 coupled to amine sensor chip, glucagon in mobile phase
[4] = tested on: endogenous GP73; test: Knockdown of endogenous GP73 in H22 cells (western blotting); type: cell-based; settings: H22 mouse liver cells; 24 h after transfection
Experimental: Experimental method: A total of 9 RNAi oligos (Table 7, SEQ ID NOs. 1-9) targeting different sites of mouse GP73 were firstly synthesized, and H22 mouse liver cells were transfected and collected for the western blotting experiments 24 h after transfection.

[5] = tested on: mice with type II diabetes; test: GP73 siRNA treatment of high-fat-diet-induced mice with type II diabetes; type: in vivo, C57BL/6N mice; settings: for HbA1c: serum
Experimental: 2. In the present invention, the detection method of glucose in mice is as follows: all blood samples were collected from the tail, and the blood glucose was tested by a full-automatic glucometer (ACCU-CHEK; Roche) through a glucose oxidase method; normal mice and diabetic mice were fasting for 6 h, and fasting blood glucose was tested; the random blood glucose level was tested at 9:00 am; and when the blood glucose level is greater than 35 mM (the upper limit of glucometer), it was recorded as 35 mM.
3. In the present invention, the detection method of the glycometabolism experiment is as follows: In the glucose, insulin and pyruvate tolerance tests, mice were fasting for 12 h and then injected with D-glucose (Sigma, Art. No.: G8270, 1.5 g/kg body weight), insulin (Sigma, Art. No.: 19278, 0.75 U/kg body weight) or sodium pyruvate (Sigma, Art. No.: P2256, 2 g/kg body weight) at […]; at 0 min, 15 min, 30 min, 45 min, 60 min, 120 min and 24 h after injection, blood was collected from the tail vein of mice, and blood glucose was tested to determine the intraperitoneal glucose tolerance (IPGTT), pyruvate tolerance (PTT) and insulin tolerance (ITT).
Experimental method: On this basis, C57BL/6N mice (male, 8-10 weeks old, 20-22 g) were selected, and after feeding high-fat diet for 20 weeks, the animals were fasting for 6 h, and the fasting blood glucose was tested. […] According to the fasting blood glucose, the mice were randomly divided into the Ctr siRNA group and the GP73 siRNA experimental group, 6 mice per group. The mice were first injected with 4 nM at the tail vein, and then intraperitoneally injected with 4 nM, once every 5 days. The mice were sacrificed 4 weeks after the first injection, and the indicators such as blood glucose and glycated hemoglobin were detected.

[6] = tested on: PKA; test: PKA phosphorylation and kinase activity in HepG2 cells (western blotting); type: cell-based; settings: versus PBS control
[7] = molecular target: T1, GCG (Homo sapiens, UniProt P01275); test: Affinity of recombinant soluble GP73 and GCG by OpenSPR; type: binding
T1 construct: purchased MCE HY-P0082

[8] = molecular target: T1, GCG; test: Affinity of recombinant soluble GP73 and GCG by microscale thermophoresis (MST); type: binding
[9] = molecular target: T1, GCG; test: Affinity of recombinant soluble GP73 and GCG by Reichert 4SPR; type: binding

T1 sequence (P01275 53-81 limits assumed, species assumed): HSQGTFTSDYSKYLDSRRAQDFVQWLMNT

Kd [1]: 730 nM | Kd [2]: 580 nM | Kd [3]: 3190 nM
Molecule: recombinant rat soluble GP73

Molecule: No. 4: GP73 siRNA 995-CCAACAGGCAUCCAUCCAATT (unmodified) (2'-OMe throughout, phosphorothioates at both ends, 3'-cholesterol, counts not given here)
Knockdown efficiency of endogenous GP73 [4]: good knockdown efficiency

Kd [1]: 1550 nM | Kd [2]: 410 nM | Kd [3]: 3210 nM
Molecule: recombinant mouse soluble GP73

Molecule: Ctr siRNA: RNAi oligos with disrupted sequences used as control, AUCACACCAACACAGGUCCTT (chemistry not given here)
ALT ([5]; 4 weeks after treatment): 77 ± 22 | AST ([5]; 4 weeks after treatment): 243 ± 65 | CHO ([5]; 4 weeks after treatment): 5.62 ± 0.97 | TG ([5]; 4 weeks after treatment): 1.27 ± 0.37 | HbA1c ([5]; 4 weeks after treatment): 4.39±0.67% | HbA1c ([5]; 4 weeks after treatment, listed as Ctrl siRNA): 4.39 ± 0.67% | Fasting blood glucose ([5]; Week 0): 12.0 ± 1.7 mM | Fasting blood glucose ([5]; Week 4, injection once every 5 days): 12.2 ± 3.0 mM

Kd [1]: 350 nM | Kd [2]: 120 nM
Molecule: recombinant monkey soluble GP73

Kd [7]: 2800 nM | Kd [8]: 2450 nM | Kd [9]: 2830 nM
B1: rhsGP73: recombinant human soluble GP73, NCBI Reference Sequence NP_057632.2 (protein)
chain: AAAERGAVELKKNEFQGELEKQREQLDKIQSSHNFQLESVNKLYQDEKAVLVNNITTGERLIRVLQDQLKTLQRNYGRLQQDVLQFQKNQTNLERKFSYDLSQCINQMKEVKEQCEERIEEVTKKGNEAVASRDLSENNDQRQQLQALSEPQPRLQAAGLPHTEVPQGKGNVLGNSKSQTPAPSSEVVLDSKRQVEKEETNEIQVVNEEPQRDRLPQEPGREQVVEDRPVGGRGFGGAGELGQTPQVQAALSVSQENPEMEGPERDQLVIPDGQEEEQEAAGEGRNQQKLRGEDDYNMDENEAESETDKQAALAGNDRNIDVFNVEDQKRDTINLLDQREKRNHTL
PKA phosphorylation level (PKA-p) and kinase activity (RRXρS/T) [6]: significantly up-regulated; also recorded: promotes the phosphorylation level (PKA-p) and kinase activity
